From patent publication KR20150063728A (dated 2015)

How the values were obtained:
[1] = molecular target: T1, 인간 VEGF-C 폴리펩타이드 (Human VEGF-C; R&D systems; Accession # P49767) (human, UniProt P49767 103-227); assay: ELISA, coated human VEGF-C, scFv detected with anti-HA-HRP; 50% binding concentration (Kd)
T1 construct: Bought; also called hVEGF-C
T1 sequence (looked up): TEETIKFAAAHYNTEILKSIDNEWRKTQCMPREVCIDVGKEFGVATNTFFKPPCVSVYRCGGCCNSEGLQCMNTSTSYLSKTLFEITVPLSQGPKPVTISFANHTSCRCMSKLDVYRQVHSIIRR

[2] = molecular target: T2, FLAG-Tagging 된 hVEGF-C (Accession # P49767) (human, UniProt P49767 103-227, limits assumed); assay: competitive ELISA: scFv inhibits FLAG-hVEGF-C binding to coated hVEGR-R3-Fc
T2 construct: also called FLAG-Tagging 된 VEGF-C; not shown: FLAG tag
T2 sequence (looked up): T1 sequence (looked up)

Kd [1]: 26.2 nM
IC50 [2]: 33.4 nM
B1: SAIT-VEGFC-AB-4A2 (scFv 형태의 항-VEGF-C 항체) (scFv, V domains shown)
VH: EVQLLESGGGLVQPGGSLRLSCAASGFTFSSYDMSWVRQAPGKGLEWVSAISYDNGSTYYADSVKGRFTISRDNSKNTLYLQMNSLRAEDTAVYYCARDPYLARLNTFDYWGQGTLVTVSS
VL: QSVLTQPPSASGTPGQRVTISCSGSSSNIGSNNVSWYQQLPGTAPKLLIYYNSHRPSGVPDRFSGSKSGTSASLAISGLRSEDEADYYCATWDSSLNGYVFGGGTKLT
notes: Tested as library scFv (Ni-NTA purified, anti-HA detection)
